B1: LINE1-full (parent)
chain: UACGUAGGUGGUUUUCCCCUGAUAGUGCUAAGGGGGCCUGGAAGUUUGGACUGGGCAGAGCUCAACACAGCGUGGCAAAGUGGCUGUGGCUAGACUGCCUCUCUGGAUUCCUCGUCACUCAGCAGGGCAUCUCUGAGAGAAAUGCC

In this data set the parent is B1. Briefly: self-cleavage, relative activity (ratio to wild type); higher = more cleavage; in vitro, sequencing; the parent is a self-cleaving ribozyme.
U52A U81G: the self-cleavage is 1.63.

As to U52A U81C, the self-cleavage is 1.51.

Turning to G55A C95U, the self-cleavage amounted to 0.11.

Consider U52A U115C, for which the self-cleavage was determined as 1.42.

With U52A U115A, the self-cleavage worked out at 1.34.

G53A G126A: the self-cleavage was 1.23.

Turning to G53A G126U, the self-cleavage was determined as 1.31.

C51U A59G: the self-cleavage stood at 0.09.

Regarding G55C C120U, the self-cleavage was determined as 0.27.

As for G54U C84U, the self-cleavage came out at 0.07.

In the case of U52C U109A, the self-cleavage was 1.6.

Take U52C U109C: the self-cleavage was found to be 0.69.

With G54U A121G, the self-cleavage came out at 0.97.

Regarding U52C C101G, the self-cleavage worked out at 1.31.

Turning to U52A A77U, the self-cleavage is 1.03.

Take U52G U102C: the self-cleavage was determined as 1.87.

With U52G A136U, the self-cleavage is 1.1.

Consider U52G A136G, for which the self-cleavage is 0.88.

On to U52C C98A, for which the self-cleavage turned out to be 0.1.

In the case of G54A U109A, the self-cleavage was 0.35.

In the case of U52C A107G, the self-cleavage came out at 1.

In the case of C51U U132C, the self-cleavage stood at 0.69.

For G55A A138G, the self-cleavage was determined as 0.51.

As to C51U U104C, the self-cleavage was 1.62.

G53A A69U: the self-cleavage was 0.07.

C51U U115C: the self-cleavage turned out to be 1.98.

On to G55A U81A, for which the self-cleavage is 0.08.

On to G53U U143C, for which the self-cleavage stood at 1.14.

For U52A A78G, the self-cleavage came to 1.43.

As for U52A A78U, the self-cleavage was 2.37.

U52C G88A: the self-cleavage stood at 0.04.

In the case of G53U U81A, the self-cleavage turned out to be 1.52.

Take U52C C84G: the self-cleavage came out at 0.

As for U52C A121G, the self-cleavage stood at 1.41.

Regarding U52C A121C, the self-cleavage is 1.92.

Take G54A A67G: the self-cleavage came to 0.12.

With U52A A141G, the self-cleavage amounted to 1.11.

With G55C C76A, the self-cleavage came out at 0.1.

Consider G53C A136G, for which the self-cleavage turned out to be 0.36.

On to G53U A65C, for which the self-cleavage was found to be 0.07.

For G55A A57G, the self-cleavage stood at 0.15.

Turning to G53U U62C, the self-cleavage is 0.08.

As for G53A U102G, the self-cleavage came to 0.68.

As to G53A U102A, the self-cleavage stood at 1.3.

As for U52C G89A, the self-cleavage came to 0.05.

Turning to U52A G106C, the self-cleavage was found to be 1.84.

With U52C U87C, the self-cleavage turned out to be 0.11.

For the variant G53A A124G, the self-cleavage came to 0.77.

In the case of G55C U108C, the self-cleavage was found to be 0.18.

As for U52C A138C, the self-cleavage worked out at 1.62.

In the case of G54C U143A, the self-cleavage turned out to be 1.3.

Turning to G54A A69G, the self-cleavage was 0.18.

As to U52C C95G, the self-cleavage stood at 0.09.

On to U52C A64G, for which the self-cleavage came to 0.34.

With U52C A64U, the self-cleavage came out at 0.45.

On to G53U U112C, for which the self-cleavage is 1.31.

For the variant G53U A107G, the self-cleavage was determined as 1.08.

On to A50U C146U, for which the self-cleavage is 1.07.

For G54U A138U, the self-cleavage was found to be 1.01.

For G54A A92G, the self-cleavage was 0.04.

Consider A50U U81G, for which the self-cleavage stood at 0.74.

On to A50U U81A, for which the self-cleavage was 1.1.

Consider U52G C118U, for which the self-cleavage is 2.3.

On to U52A A121U, for which the self-cleavage was 1.03.

In the case of G53A U108C, the self-cleavage stood at 1.97.

Turning to U52G U115C, the self-cleavage worked out at 1.71.

Consider A50U A142G, for which the self-cleavage is 1.01.

As to A50U U91A, the self-cleavage is 0.34.

As for U52C G83A, the self-cleavage was determined as 0.53.

G54C C61U: the self-cleavage came to 0.05.

Regarding G54A A64G, the self-cleavage came out at 0.13.

As to U52A A64G, the self-cleavage was determined as 0.31.

Consider U52C G105A, for which the self-cleavage came to 1.17.

As for G54A C84U, the self-cleavage was determined as 0.08.

As to U52A A57U, the self-cleavage was 0.14.

As for U52A A57G, the self-cleavage amounted to 0.89.

With C51U U134C, the self-cleavage turned out to be 1.74.

Turning to G55C A77U, the self-cleavage came out at 0.06.

For the variant G55C U115C, the self-cleavage was 0.26.

For the variant G55A U104C, the self-cleavage was determined as 1.02.

As for U52G A69U, the self-cleavage was 0.1.

With U52A G88A, the self-cleavage was 0.12.

In the case of U52C G60A, the self-cleavage amounted to 0.03.

G53A A67G: the self-cleavage is 0.38.

As for G54A U115A, the self-cleavage stood at 0.64.

Consider U52A U112A, for which the self-cleavage came out at 0.8.

For U52C U134G, the self-cleavage was found to be 2.76.

Consider U52C U134C, for which the self-cleavage came out at 1.01.

For U52C A92G, the self-cleavage amounted to 0.1.

In the case of U52C A69G, the self-cleavage was 0.11.

Turning to U52C A69U, the self-cleavage was 0.1.

In the case of A50U C110A, the self-cleavage was found to be 1.53.

Take U52C U119A: the self-cleavage was 1.16.

Consider U52A U87A, for which the self-cleavage turned out to be 0.08.

On to U52A U87G, for which the self-cleavage was found to be 0.29.

Take U52G U73A: the self-cleavage stood at 1.74.

Consider U52A U96A, for which the self-cleavage is 0.07.

Regarding U52A U96C, the self-cleavage worked out at 0.15.

On to G53U A140C, for which the self-cleavage is 0.8.

Turning to U52C A129G, the self-cleavage came to 1.23.

Regarding G53U U108C, the self-cleavage came out at 1.56.

As for G55A U134C, the self-cleavage stood at 0.23.

Consider U52G U143C, for which the self-cleavage came out at 1.99.

On to U52G U143A, for which the self-cleavage turned out to be 1.32.

Take G53A A136G: the self-cleavage amounted to 1.71.

Regarding G54A G88A, the self-cleavage worked out at 0.08.

With G53U U85A, the self-cleavage turned out to be 0.11.

Regarding U52C G54A, the self-cleavage stood at 0.74.

Turning to U52C C113A, the self-cleavage amounted to 0.99.

Take C51U A67G: the self-cleavage was determined as 0.5.

In the case of U52A C116U, the self-cleavage was determined as 1.18.

For G53A C128U, the self-cleavage worked out at 1.34.

Turning to G53A U134G, the self-cleavage turned out to be 0.56.

For the variant G55A A94G, the self-cleavage is 0.2.

Regarding G53U U104C, the self-cleavage was 2.38.

G55A A121G: the self-cleavage was determined as 0.26.

In the case of G53A G135U, the self-cleavage worked out at 0.82.

For C51U U52C, the self-cleavage came to 0.99.

G53U A64U: the self-cleavage amounted to 0.45.

Regarding G53U A78G, the self-cleavage is 0.71.

Take U52C U85A: the self-cleavage came to 0.13.

On to U52C U85C, for which the self-cleavage came to 0.31.

For G53A U87C, the self-cleavage turned out to be 0.18.

For U52A A136G, the self-cleavage came to 1.4.

As for G53A A77G, the self-cleavage amounted to 1.82.

On to C51U A94G, for which the self-cleavage worked out at 0.22.

For U52C A77G, the self-cleavage was determined as 2.8.

Take U52C A77U: the self-cleavage worked out at 1.07.

For U52C U132C, the self-cleavage amounted to 1.75.

Turning to C51U U91A, the self-cleavage amounted to 0.84.

Take G55C A141G: the self-cleavage was 0.55.

Consider U52A G82U, for which the self-cleavage was determined as 1.26.

Turning to U52A G82A, the self-cleavage was 1.63.

As to U52C C56U, the self-cleavage came out at 0.11.

Turning to G54A A78U, the self-cleavage was determined as 0.79.

On to U52A C98U, for which the self-cleavage was found to be 0.12.

Take G53U G60U: the self-cleavage was 0.03.

Take G54U U96C: the self-cleavage turned out to be 0.07.

In the case of U52C A140U, the self-cleavage was found to be 1.15.

Regarding U52C A140G, the self-cleavage was found to be 1.1.

Consider U52C U62C, for which the self-cleavage worked out at 0.03.

U52C U62A: the self-cleavage was 0.08.

On to C51U A77G, for which the self-cleavage was found to be 2.03.

Turning to C51U U102C, the self-cleavage was 0.41.

As to U52A U143A, the self-cleavage was determined as 1.37.

On to A50U U132C, for which the self-cleavage was 1.05.

For G53U A77G, the self-cleavage was determined as 2.05.

Consider U52G G70A, for which the self-cleavage worked out at 0.42.

On to G53A U96A, for which the self-cleavage amounted to 0.06.

Take U52C C99A: the self-cleavage came to 0.27.

In the case of U52C C99U, the self-cleavage came to 0.64.

U52A U62C: the self-cleavage turned out to be 0.04.

For U52A U62A, the self-cleavage worked out at 0.05.

Turning to G53A U81C, the self-cleavage was 0.67.

Turning to U52C A59U, the self-cleavage was 0.72.

As to G53A U115C, the self-cleavage worked out at 1.07.

Regarding G53A U115A, the self-cleavage was 1.31.

On to U52A C113U, for which the self-cleavage is 1.41.

As for G55A A124U, the self-cleavage is 0.19.

Regarding G53A U100C, the self-cleavage is 1.09.

For C51A U62A, the self-cleavage came to 0.02.

In the case of A50U U104C, the self-cleavage was determined as 1.03.

Take U52A G72A: the self-cleavage was 1.55.

Take G54A A117G: the self-cleavage is 0.52.

In the case of G54A G82A, the self-cleavage was determined as 0.9.

For G53A A64G, the self-cleavage was 0.12.

Take A50U U143C: the self-cleavage was found to be 1.16.
